Measurements taken from patent US20240034813A1 (Janssen / Centocor, published 2024).

Legend:
[1] = biological target: T1, recombinant cMet/HGFR with c-terminal His-tag, Cy5-labeled (UniProt P08581 25-932, limits assumed, Cy5 label (reacted with Cy5 Mono NHS Ester; sites not stated)); assay: competitive TR-FRET (Eu-amivantamab/Cy5-c-MET), EC50 ratio vs Reference Material; Ex. 11 drug product, 3 months at 25 C
T1 construct: Commercial protein; also called Cy5-c-MET; Cy5-labeled c-MET antigen; not shown: C-terminal His-tag
Excerpt: (§1) In this procedure, varying concentrations of unlabeled bispecific EGFR-cMet antibody sample compete with donor fluorophore (Europium (Eu) chelate) labeled bispecific EGFR-cMet antibody for binding to an acceptor fluorophore (Cy5)-labeled c-MET antigen. Excitation of the donor fluorophore results in a transfer of energy to the bound acceptor fluorophore (FRET process). The resultant FRET is detected by emission of light at 665 nm using a microplate reader capable of measuring time-resolved fluorescence. Sample dose response curves are compared to the Reference Material (RM).
(§2) c-MET Binding Materials and Methods. Certified commercial cMet, a recombinant cMet/HGFR with c-terminal His-tag is reacted with certified commercial Cy5 Mono NHS Ester to produce Cy5-labeled c-MET. Validated bispecific EGFR-cMet antibody is reacted with certified commercial Europium (Eu) chelate to produce Eu labeled bispecific EGFR-cMet antibody. […] Fluorescence is then measured by spectrophotometry at 665 nm, plotted against antibody concentration and analyzed by a four-parameter logistic model. The antibody concentration required to obtain half of the maximum fluorescence response (EC50) is determined for RM, assay control and samples. The potencies of assay control and samples are calculated based on the ratio of the sample (or control) and RM EC50 values and reported as a percentage activity relative to the RM.

[2] = biological target: T1, recombinant cMet/HGFR with c-terminal …; assay: competitive TR-FRET (Eu-amivantamab/Cy5-c-MET), EC50 ratio vs Reference Material; Ex. 11 drug product, 3 months at 40 C
Excerpt: as §1, §2

[3] = biological target: T2, recombinant human EGFR/ErbB1/HER1 with C-terminal His tag, Cy5-labeled (human, UniProt P00533 25-645, Cy5 label (reacted with Cy5 Mono NHS Ester; sites not stated)); assay: competitive TR-FRET (Eu-amivantamab/Cy5-EGFR), EC50 ratio vs Reference Material; Ex. 3 acetate formulation with PS80, T0
T2 construct: Commercial protein; also called Cy5-EGFR; Cy5-labeled EGFR antigen; not shown: C-terminal His tag
Excerpt: as §1, with “EGFR” for “c-MET”, “RM.” for “Reference Material (RM).”
as §2, with “EGFR” for “c-MET”, “EGFR,” for “cMet,”, “human EGFR/ErbB1/HER1” for “cMet/HGFR”, “C-terminal His tag” for “c-terminal His-tag”, “EGFR.” for “c-MET.”, “Eu-labeled” for “Eu labeled”

[4] = biological target: T1, recombinant cMet/HGFR with c-terminal …; assay: competitive TR-FRET (Eu-amivantamab/Cy5-c-MET), EC50 ratio vs Reference Material; Ex. 11 drug product, 0 months, 40 C table
Excerpt: as §1, §2

[5] = biological target: T2, recombinant human EGFR/ErbB1/HER1 with …; assay: competitive TR-FRET (Eu-amivantamab/Cy5-EGFR), EC50 ratio vs Reference Material; Ex. 12 drug product with rHuPH20, 9 months at 5 C
Excerpt: as §1, with “EGFR” for “c-MET”, “RM.” for “Reference Material (RM).”
as §2, with “EGFR” for “c-MET”, “EGFR,” for “cMet,”, “human EGFR/ErbB1/HER1” for “cMet/HGFR”, “C-terminal His tag” for “c-terminal His-tag”, “EGFR.” for “c-MET.”, “Eu-labeled” for “Eu labeled”

[6] = biological target: T1, recombinant cMet/HGFR with c-terminal …; assay: competitive TR-FRET (Eu-amivantamab/Cy5-c-MET), EC50 ratio vs Reference Material; Ex. 12 drug product with rHuPH20, 3 months at 25 C
Excerpt: as §1, §2

[7] = biological target: T1, recombinant cMet/HGFR with c-terminal …; assay: competitive TR-FRET (Eu-amivantamab/Cy5-c-MET), EC50 ratio vs Reference Material; Ex. 2 Formulation 1 (10 mM histidine), T0, 40 C table
Excerpt: as §1, §2

[8] = biological target: T1, recombinant cMet/HGFR with c-terminal …; assay: competitive TR-FRET (Eu-amivantamab/Cy5-c-MET), EC50 ratio vs Reference Material; Ex. 2 Formulation 2 (50 mM histidine), 3 months at 5 C
Excerpt: as §1, §2

[9] = biological target: T2, recombinant human EGFR/ErbB1/HER1 with …; assay: competitive TR-FRET (Eu-amivantamab/Cy5-EGFR), EC50 ratio vs Reference Material; Ex. 2 Formulation 2 (50 mM histidine), 3 months at 40 C
Excerpt: as §1, with “EGFR” for “c-MET”, “RM.” for “Reference Material (RM).”
as §2, with “EGFR” for “c-MET”, “EGFR,” for “cMet,”, “human EGFR/ErbB1/HER1” for “cMet/HGFR”, “C-terminal His tag” for “c-terminal His-tag”, “EGFR.” for “c-MET.”, “Eu-labeled” for “Eu labeled”

cMET Binding activity relative to Reference Material (%) [1]: 94% | cMET Binding activity relative to Reference Material (%) [2]: 78% | EGFR Binding % activity relative to RM [3]: 103% | cMET Binding activity relative to Reference Material (%) [4]: 85% | EGFR Binding activity relative to Reference Material (%) [5]: 87% | cMET Binding activity relative to Reference Material (%) [6]: 81% | cMET Binding % activity relative to RM [7]: 87% | cMET Binding % activity relative to RM [8]: 98% | EGFR Binding % activity relative to RM [9]: 38%
B1: amivantamab (bispecific antibody, human IgG1, kappa)
heavy 1: not shown
light 1: not shown
heavy 2: not shown
light 2: DIQMTQSPSSVSASVGDRVTITCRASQGISNWLAWFQHKPGKAPKLLIYAASSLLSGVPSRFSGSGSGTDFTLTISSLQPEDFATYYCQQANSFPITFGQGTRLEIKRTVAAPSVFIFPPSDEQLKSGTASVVCLLNNFYPREAKVQWKVDNALQSGNSQESVTEQDSKDSTYSLSSTLTLSKADYEKHKVYACEVTHQGLSSPVTKSFNRGEC
notes: The samples tested were high concentration (160 mg/mL) formulations, fresh or stored or stressed; also called JNJ-61186372; bispecific EGFR-cMet antibody
